Experimental data published in PMC2859543.

Target: GST-cLkh1^ΔLA (LAMMER motif-deleted Lkh1 catalytic domain) (S. pombe)
Test: pull-down

Binder	percent of the substrate-binding activity of GST-cLkh1 and GST-cLkh1^K391R [%]
His6-tagged Tup12 (natural protein) MATSNVSSRVNELLEAVKKEFEDICQKTKTVEAQKDDFEYKAMISAQINEMALMKQTVMDLEMQQSKVKDRYEEEITSLKAQLEARRKEIASGVVPQSSKTKHGRNSVSFGKYGNAGPFNSDNSSKPLILNNGSSGGTPKNLRSPAIDSDGTVLAPIQTSNVDLGSQYYSSPHVRPAVGATMAGSAMRTFPSNLPLGHPPPPSDSANSSVTPIAAPLVVNGKVSGNPPYPAEIIPTSNVPNREEKDWTVTSNVPNKEPPISVQLLHTLEHTSVICYVRFSADGKFLATGCNRAAMVFNVETGKLITLLQEESSKREGDLYVRSVAFSPDGKYLATGVEDQQIRIWDIAQKRVYRLLTGHEQEIYSLDFSKDGKTLVSGSGDRTVCLWDVEAGEQKLILHTDDGVTTVMFSPDGQFIAAGSLDKVIRIWTSSGTLVEQLHGHEESVYSVAFSPDGKYLVSGSLDNTIKLWELQCVSNVAPSMYKEGGICKQTFTGHKDFILSVTVSPDGKWIISGSKDRTIQFWSPDSPHSQLTLQGHNNSVISVAVSPNGHCFATGSGDLRARIWSYEDL	30
His6-tagged Tup11 (natural protein) MASVEDATKVQEMLDALKAEYNALAHHSFASKARGNDYESSMIQSQIQEIEAFRKTVDDMYEKQKSIRETYEKDINKLKRELEELGVEANTASYRNRGERSELAASNNQVTHIDQEHPSQTKSTSQPPSNHLPAFQQIPPIHQSAYPQNNVAEVLMPPIPPSVEASSGQNFNQGIASQNPAISTSNLPSTTPLYIPPVNYGANQVSQQPNPQLPGVSNYYNPSATSKPAVNVQPPRIPTKATPSAEPSMTASANAGSISQAGPDGEYQGREQIAPVSDTEAARKTTSQSWYVTYNPACKRVFNINLVHTLEHPSVVCCVKFSNNGKYLATGCNQAANVFDVQTGKKLFTLHEESPDPSRDLYVRTIAFSPDGKYLVTGTEDRQIKLWDLSTQKVRYVFSGHEQDIYSLDFSHNGRFIVSGSGDRTARLWDVETGQCILKLEIENGVTAIAISPNDQFIAVGSLDQIIRVWSVSGTLVERLEGHKESVYSIAFSPDSSILLSGSLDKTIKVWELQATRSVGLSAIKPEGICKATYTGHTDFVLSVAVSPDSRWGLSGSKDRSMQFWDLQTGQSYLTCQGHKNSVISVCFSPDGRQFASGSGDLRARIWSIDPASP	30
